Data taken from patent US20040126819A1 (LICENTIA, published 2004).

Experiments:
[1] = target: 300 kD GDNF receptor subunit of mouse cell lines (MN-1, TM4, SK-N-SH as printed); experiment: displacement of 125I-GDNF by cold GDNF on MN-1 cells, cross-linking, SDS-PAGE, bands counted
Method: (§1) Plated cells were incubated with 10 ng/ml […] at 4° C. in binding buffer as described above. Ligand/receptor complexes were chemically cross-linked for thirty minutes at room temperature using either disuccinimidyl suberate (DSS) or 1-Ethyl-3(-3-dimethylaminopropyl)-carbodiimide hydrochloride (EDAC) (Pierce Chemical, Rockland, Ill.). Following quenching of the cross-linking reactions, cells were washed twice with 10 mM Tris/HCl buffered saline, 2 mM EDTA, 10% glycerol, 1% NP40, 1% Triton x-100, 10 μg/ml leupeptin, 10 μg/ml antipain, 50 μg/ml aprotinin, 100 μg/ml benzamidine hydrochloride, 10 μg/ml pepstatin and 1 mM PMSF(proteinase inhibitors from Sigma). Cleared lysates were boiled for 5 min in SDS/β-mercaptoethanol buffer, fractionated by SDS/PAGE on 4-20% gradient electrophoresis gels, and visualized by autoradiography. […] These samples were fractionated by gradient SDS/PAGE, gels were then dried and specific bands excised according to molecular weights determined from autoradiograms, and count in a gamma counter. […]
(§2) In order to dissect the individual constituent affinities of GDNF receptor subunits, displacement binding assays were performed, followed by cross-linking and SDS-PAGE. Receptor-ligand complexes were visualized by autoradiography, cut out from the gel and counted in a gamma counter.

[2] = target: T1, 300 kD GDNF receptor subunit of rat cell lines; experiment: displacement of 125I-GDNF by cold GDNF on RN33B cells, cross-linking, SDS-PAGE, bands counted
T1 construct: On C6, L6, RN33B, RN46A and ST15A cells; also called large molecular weight band; high molecular weight component
Method: as §1, §2

[3] = target: T2, 135 kD GDNF receptor subunit of rat cell lines; experiment: as above
T2 construct: On C6, L6, RN33B and RN46A cells
Method: as §1, §2

[4] = target: T3, 55 kD GDNF receptor subunit of rat cell lines (confirmed to be GDNFR-α) (rat, UniProt Q62997 25-430); experiment: displacement of 125I-GDNF by increasing cold GDNF on RN33B cells, cross-linking, SDS-PAGE, band of the subunit cut out and counted
T3 construct: whole, on cells; also called 50-55 kD receptor; 70 kD complex (with GDNF) in RN33B cells
T3 sequence (looked up): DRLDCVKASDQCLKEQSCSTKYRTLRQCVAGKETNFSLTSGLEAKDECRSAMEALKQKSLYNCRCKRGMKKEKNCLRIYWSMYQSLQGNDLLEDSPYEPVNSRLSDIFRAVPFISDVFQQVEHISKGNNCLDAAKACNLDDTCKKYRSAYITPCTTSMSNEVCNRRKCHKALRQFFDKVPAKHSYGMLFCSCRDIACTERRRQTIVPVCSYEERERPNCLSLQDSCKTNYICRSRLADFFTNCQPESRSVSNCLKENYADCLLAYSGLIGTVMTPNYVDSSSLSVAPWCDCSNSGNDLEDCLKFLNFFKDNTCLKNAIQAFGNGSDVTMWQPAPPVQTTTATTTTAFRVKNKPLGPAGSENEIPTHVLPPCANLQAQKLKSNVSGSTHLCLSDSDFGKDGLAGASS
Method: (§3) Plated cells were incubated with 10 ng/ml […] at 4° C. in binding buffer as described above. Ligand/receptor complexes were chemically cross-linked for thirty minutes at room temperature using either disuccinimidyl suberate (DSS) or 1-Ethyl-3(-3-dimethylaminopropyl)-carbodiimide hydrochloride (EDAC) (Pierce Chemical, Rockland, Ill.). Following quenching of the cross-linking reactions, cells were washed twice with 10 mM Tris/HCl buffered saline, 2 mM EDTA, 10% glycerol, 1% NP40, 1% Triton x-100, 10 μg/ml leupeptin, 10 μg/ml antipain, 50 μg/ml aprotinin, 100 μg/ml benzamidine hydrochloride, 10 μg/ml pepstatin and 1 mM PMSF(proteinase inhibitors from Sigma). Cleared lysates were boiled for 5 min in SDS/β-mercaptoethanol buffer, fractionated by SDS/PAGE on 4-20% gradient electrophoresis gels, and visualized by autoradiography. Molecular weights indicated were obtained by subtracting the weight of a GDNF ligand monomer, e.g., 25-30 kD, more preferably […], from the estimated molecular weights of cross-linked complexes visualized by SDS/PAGE. For affinity measurements of cross-linked complexes, cells were incubated on plates as above in the presence of increasing amounts of unlabeled GDNF. These samples were fractionated by gradient SDS/PAGE, gels were then dried and specific bands excised according to molecular weights determined from autoradiograms, and count in a gamma counter. […] Immunocomplexes were collected with Protein A-Sepharose (Pharmacia, Sweden), washed in lysis buffer and boiled for 5 minutes before SDS/PAGE and autoradiography as above.
as §2

[5] = target: T1, 300 kD GDNF receptor subunit of rat …; experiment: as above
Method: as §3, §2

[6] = target: T2, 135 kD GDNF receptor subunit of rat …; experiment: as above
Method: as §3, §2

[7] = target: T4, 70 kD GDNF receptor subunit of rat cell lines (designated GDNFR-β) (rat, UniProt O35977 22-444); experiment: as above
T4 construct: whole, on cells; also called 65-70 kD receptor; 100 kD complex (with GDNF) in RN33B cells
T4 sequence: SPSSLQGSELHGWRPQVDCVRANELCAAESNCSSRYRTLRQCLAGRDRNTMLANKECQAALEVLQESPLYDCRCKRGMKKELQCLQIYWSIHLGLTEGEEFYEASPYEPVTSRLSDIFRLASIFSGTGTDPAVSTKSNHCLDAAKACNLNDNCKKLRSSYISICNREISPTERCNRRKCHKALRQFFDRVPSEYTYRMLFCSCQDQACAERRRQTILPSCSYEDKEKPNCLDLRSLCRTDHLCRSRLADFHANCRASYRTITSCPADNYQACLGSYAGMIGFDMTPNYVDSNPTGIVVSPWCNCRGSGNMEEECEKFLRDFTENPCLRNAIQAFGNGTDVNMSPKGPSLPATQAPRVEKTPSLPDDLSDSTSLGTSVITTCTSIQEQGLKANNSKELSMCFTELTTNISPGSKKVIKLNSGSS
Method: as §3, §2

B1: recombinant rat GDNF produced in Sf21 insect cells using a baculovirus expression system (ligand, UniProt Q07731 78-211, looked up)
chain: SPDKQAAALPRRERNRQAAAASPENSRGKGRRGQRGKNRGCVLTAIHLNVTDLGLGYETKEELIFRYCSGSCEAAETMYDKILKNLSRSRRLTSDKVGQACCRPVAFDDDLSFLDDSLVYHILRKHSAKRCGCI
modifications: labeled with Na-^125I by the chloramine-T method where used as tracer
notes: mature; also called glial cell line-derived neurotrophic factor
Kd [1]: ~200 pM | Kd [2]: ~200 pM | Kd [3]: ~200 pM | IC50 (read off the curve) [4]: ~200 pM | IC50 (read off the curve) [5]: ~100 pM | IC50 (read off the curve) [6]: ~200 pM | IC50 (read off the curve) [7]: ~200 pM
